Results taken from patent publication US20250250357A1 (NANJING ZAIMING PHARMACEUTICAL, published 2025).

T1: human MSLN-R1-his protein (human, UniProt Q13421 296-390)
T1 construct: Self-made in HEK293E cells; also called human MSLN-R1 protein; hMSLN-R1-his; not shown: His tag
T1 chain: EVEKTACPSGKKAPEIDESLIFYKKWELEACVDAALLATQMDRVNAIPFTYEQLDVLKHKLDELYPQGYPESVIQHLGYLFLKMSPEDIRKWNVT


What was measured:
[1] = target: T2, human MSLN-FL-his protein (human, UniProt Q13421 296-580); assay: ELISA on coated antigen, antibody 10 nM
T2 construct: Self-made in HEK293E cells; also called human MSLN full-length protein; hMSLN-FL-his; not shown: His tag

[2] = target: T1, human MSLN-R1-his protein; assay: ELISA on coated antigen, antibody 100 nM
Method: (§1) The plate was sealed with a plastic film and incubated at 4° C. overnight. The next day, the plate was washed twice with PBST, and a blocking buffer [PBS+2% (w/w) BSA] was added for blocking at room temperature for 2 h. The blocking buffer was discarded, and a chimeric antibody or negative control antibody serially diluted from 100 nM was added at 50 μL/well. After incubation at 37° C. for 2 h, the plate was washed 3 times with PBST. […] After incubation at 37° C. for 2 h, the plate was washed 5 times with PBST. A TMB substrate was added at 50 μL/well for incubation at room temperature for 5-10 min, and then a stop solution (1.0 N HCl) was added at 50 μL/well.

[3] = target: T2, human MSLN-FL-his protein; assay: ELISA on coated antigen, antibody 0.01 nM
Method: as §1

[4] = target: T1, human MSLN-R1-his protein; assay: ELISA on coated antigen, no antibody (column none)
Method: as §1

[5] = target: T1, human MSLN-R1-his protein; assay: ELISA on coated antigen, antibody 0.0001 nM
Method: as §1

[6] = target: T1, human MSLN-R1-his protein; assay: ELISA on coated antigen, antibody 10 nM
Method: as §1

[7] = target: T1, human MSLN-R1-his protein; assay: ELISA on coated antigen, antibody 0.1 nM
Method: as §1

[8] = target: T1, human MSLN-R1-his protein; assay: ELISA on coated antigen, antibody 1 nM
Method: as §1

[9] = target: T2, human MSLN-FL-his protein; assay: ELISA on coated antigen, antibody 0.1 nM
Method: as §1

[10] = target: T2, human MSLN-FL-his protein; assay: ELISA on coated antigen, no antibody (column none)
Method: as §1

[11] = target: T1, human MSLN-R1-his protein; assay: ELISA on coated antigen, antibody 0.001 nM
Method: as §1

[12] = target: T1, human MSLN-R1-his protein; assay: ELISA on coated antigen, antibody 0.01 nM
Method: as §1

[13] = target: T2, human MSLN-FL-his protein; assay: ELISA on coated antigen, antibody 100 nM
Method: as §1

[14] = target: T2, human MSLN-FL-his protein; assay: ELISA on coated antigen, antibody 0.0001 nM
Method: as §1

[15] = target: T2, human MSLN-FL-his protein; assay: ELISA on coated antigen, antibody 1 nM
Method: as §1

[16] = target: T2, human MSLN-FL-his protein; assay: ELISA on coated antigen, antibody 0.001 nM
Method: as §1

Binder	OD450 [1] [OD450]	OD450 [2] [OD450]	OD450 [3] [OD450]	OD450 [4] [OD450]	OD450 [5] [OD450]	OD450 [6] [OD450]	OD450 [7] [OD450]	OD450 [8] [OD450]	OD450 [9] [OD450]	OD450 [10] [OD450]	OD450 [11] [OD450]	OD450 [12] [OD450]	OD450 [13] [OD450]	OD450 [14] [OD450]	OD450 [15] [OD450]	OD450 [16] [OD450]
S009-F3.45.21 (antibody, human IgG1, kappa, V domains shown, Human-murine chimeric antibody: murine VH/VL on human IgG1 heavy and kappa light constant regions) VH: DVQLQESGPGLVKPSQSLSLTCSVTGDSITSGYYWNWIRQFPGNKLEWMGFIRFDGTNNYNPSLKNRISITRDTSKNQFFLKLNSVTTEDTATYYCAREGSYAPAWFAYWGQGTLVTVSA VL: QIVLTQSPAIMSASPGEKVTMTCSASSSLSYMYWYQQKPGSSPRLLIYDTSNLASGVPVRFSGSGSGTSYSLTISRMEAEDAATYYCQQWSSYPPTFGGGTKLEIKR	1.8	0.65	0.69	0.07	0.06	0.11	0.05	0.06	1.63	0.08	0.06	0.06	2.23	0.1	1.75	0.35
S009-F3.74.20 (antibody, human IgG1, kappa, V domains shown, Human-murine chimeric antibody: murine VH/VL on human IgG1 heavy and kappa light constant regions) VH: RVQLQQSGAELVRPGASVTLSCKASGYTFTDSEMHWVKQTPVHGLEWIGAIDPEIDGTAYNQNFRDKAILTADKSSSTAYMELRSLTSEDSAVYYCTTYFGSGYGYFDVWGTGTTVTVSS VL: DVVMTQTPLSLSVSLGDQASISCRSSQSLVYSNGNTYLHWFLQKPGQSPKLLIYKVSNRFSGVPDRFSGSGSGTDFTLKINRVEAEDLGVYFCSQSTHIPFTFGAGTKLELKR	1.97	0.11	0.42	0.07	0.06	0.08	0.06	0.07	1.59	0.08	0.06	0.06	2.17	0.07	1.88	0.11
S009-F3.7.3 (antibody, human IgG1, kappa, V domains shown, Human-murine chimeric antibody: murine VH/VL on human IgG1 heavy and kappa light constant regions) VH: EVNFEESGGGLVQPGGSMKLSCVASGFTFSNYWMNWVRQSPEKGLEWVAQIRLKSDNYATHYAESVKGRFTISRDDFKSSVYLQMNNLRAEDTGIYYCTVGTGGYWGQGTTLTVSS VL: DIVLTQSPASLAMSLGKRATISCRASESVSIVGTNVIHWFQQKPGQPPKLLIYHASNLETGVPARFSGSGSGTDFTLTIDPVEEDDVAIYHCLQSRKIPWTFGGGTKLEIKR	0.08	0.12	0.07	0.08	0.07	0.08	0.07	0.07	0.07	0.08	0.07	0.06	0.13	0.06	0.07	0.06
S009-F3.16.1 (antibody, human IgG1, kappa, V domains shown, Human-murine chimeric antibody: murine VH/VL on human IgG1 heavy and kappa light constant regions) VH: EVKFEESGGGLVQPGGSMKLSCVASGFTFSNYWMNWVRQSPEKGLEWVAQIRLKSDNYATHYAESVKGRFSISRDDSKSSVYLQMNNLRAEDTGIYYCSVGTGGYWGQGTTLTVSS VL: DIVLTQSPASLALSPGKRATISCRASESVSIIGTDVIHWFQQKPGQPPKLLIYHASNLETGVPARFSGSGSRTDFTLTIDPVEEDDVAIYYCLQSRKIPWTFGGGTKLEIKR	0.11	0.1	0.07	0.08	0.07	0.08	0.07	0.06	0.08	0.08	0.07	0.06	0.12	0.06	0.08	0.06
S009-F3.38.10 (antibody, human IgG1, kappa, V domains shown, Human-murine chimeric antibody: murine VH/VL on human IgG1 heavy and kappa light constant regions) VH: EVQLQQSGPVLVKPGASVKMSCEASGYIFTDYYMNWVKKSHGKSLEWIGVINPKNGVISHNQKFKGKATLTVDKSSNTAYMELSSLTSEDSAVYYCANYGSRFYAMDYWGQGTSVTVSS VL: DVVMTQTPLSLPVSLGDQASISCRSSQSLIHSDGNTYLQWYLQKSGQSPKLLIYKVSNRFSGVPDRFSGSGSGTDFTLKISRVETEDLGVYFCSQTTHVPFTFGSGTKLEIKR	0.06	0.11	0.07	0.07	0.07	0.07	0.06	0.06	0.07	0.07	0.07	0.06	0.1	0.06	0.07	0.06

The next lines start with the values.

OD450 [1] [OD450]	OD450 [2] [OD450]	OD450 [3] [OD450]	OD450 [4] [OD450]	OD450 [5] [OD450]	OD450 [6] [OD450]	OD450 [7] [OD450]	OD450 [8] [OD450]	OD450 [9] [OD450]	OD450 [10] [OD450]	OD450 [11] [OD450]	OD450 [12] [OD450]	OD450 [13] [OD450]	OD450 [14] [OD450]	OD450 [15] [OD450]	OD450 [16] [OD450]	Binder
2.11	0.08	0.7	0.07	0.07	0.06	0.06	0.06	1.76	0.07	0.06	0.06	2.39	0.07	1.98	0.15	S009-F3.23.1 (antibody, human IgG1, kappa, V domains shown, Human-murine chimeric antibody: murine VH/VL on human IgG1 heavy and kappa light constant regions) VH: QVQLQQSGADLVRPGASVTLSCKASGYTFTDYEMHWVKQTPVHGLEWIGAIDPETGDTVYNQNFKGKAILTADKSSSTAYMELRSLTSEDSAVYYCTRYGYDWGWGQGTTLTVSS VL: not shown
1.99	0.07	0.69	0.06	0.06	0.06	0.06	0.05	1.71	0.07	0.06	0.06	2.31	0.07	1.97	0.14	S009-F3.80.22 (antibody, human IgG1, kappa, V domains shown, Human-murine chimeric antibody: murine VH/VL on human IgG1 heavy and kappa light constant regions) VH: QVQLQQSGAELVRPGASVTLSCKASGYTFTDYEIHWVKQTPVHGLEWIGAFDPEIGGSAYNQKFKDRATLTADKSSSTAYMELHSLTAEDSAVYYCTDYYGSSSGYFDVWGTGTTVTVSS VL: DVVMTQTPLSLPVSLGDQASISCRSSQSLEHNNGNTYLHWFLHKPGQSPKLLIYKVSNRFSGVPDRFSGSGSGTDFTLKISRVEAEDLGVYFCSQSTHVPFTFGSGTKLEIKR
2.15	0.09	0.62	0.06	0.05	0.07	0.05	0.06	1.72	0.06	0.05	0.05	2.76	0.06	1.99	0.14	S009-F3-63.5 (antibody, human IgG1, kappa, V domains shown, Human-murine chimeric antibody: murine VH/VL on human IgG1 heavy and kappa light constant regions) VH: QVQLQQSGAELVRPGASVTLSCKASGYTFTDYEMHWVKQTPVHGLEWIGGIDPETGDTAYNQQFKGKAILTADRSSSTAYMELRSLTSEDSAVYYCTNYASSREDYWGQGTTLTVSS VL: not shown
2.06	0.07	0.63	0.07	0.07	0.06	0.06	0.06	1.68	0.08	0.07	0.07	2.58	0.07	1.93	0.14	S009-F3.51.8 (antibody, human IgG1, kappa, V domains shown, Human-murine chimeric antibody on human IgG1/kappa constant regions) VH: QVQLQQSGAELVRPGASVTLSCKASGYTFTDYEMHWVKQTPVHGLEWIGGFDPETGGTAHNQKFKGKAILTADKSSSTAYMELRSLTSEDSAVYYCSNYGSIWGDCWGQGTSVTVSS VL: not shown
